Data on one substance can be found in article doi:10.1101/2025.01.23.634444.

One may read the stoichiometry N as the number of molecules, sites or subunits per partner or assembly.

For the test, the target named is VraS-H6x (recombinant full-length histidine kinase VraS of Staphylococcus aureus with C-terminal H6x tag) (Staphylococcus aureus USA300-TCH1516). As to the kind of experiment: SEC. A general note: In gel filtration, larger molecules generally elute earlier.

Sequence of VraS-H6x (recombinant full-length histidine kinase VraS of Staphylococcus aureus with C-terminal H6x tag) (enzyme) (Q5HEN9 whole entry): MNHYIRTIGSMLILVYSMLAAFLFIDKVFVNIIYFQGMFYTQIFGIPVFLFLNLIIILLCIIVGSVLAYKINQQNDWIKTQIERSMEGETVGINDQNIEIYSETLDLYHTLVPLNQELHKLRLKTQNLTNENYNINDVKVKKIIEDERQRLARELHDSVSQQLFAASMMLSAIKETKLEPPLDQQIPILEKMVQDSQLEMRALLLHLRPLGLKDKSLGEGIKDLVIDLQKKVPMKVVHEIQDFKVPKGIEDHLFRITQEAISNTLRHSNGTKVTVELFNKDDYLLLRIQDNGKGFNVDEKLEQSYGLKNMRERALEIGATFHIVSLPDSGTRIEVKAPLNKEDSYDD

With “VraS-H6x (recombinant full-length histidine kinase VraS of Staphylococcus aureus with C-terminal H6x tag) (enzyme)”, the stoichiometry N was found to be 2.
